Source: patent US20070197431A1 (published 2007)

What was measured:
human EGF receptor [1] = target: T1, human EGF receptor (human, UniProt P00533 25-1210); test: co-immunoprecipitation from co-infected Sf9 cells, anti-FLAG blot
Text: (§1) Baculovirus encoding Nrdp1 tagged at its amino terminus with FLAG epitope was created as described previously (Guy, P. M., et al., Proc. Natl. Acad. Sci USA., 91:8132-36 ((1994)). Baculoviruses encoding human EGF receptor, human ErbB2, bovine ErbB3 or human ErbB4 have been described previously (Carraway, K. L., III, et al., Nature, 387:512-16 (1997)). For co-immunoprecipitation experiments Sf9 cells were infected with receptor viruses and co-infected either wild type or Nrdp1 baculovirus. 48 hours after infection cleared NP-40 lysates were immunoprecipitated with receptor antibodies and blotted with antibodies directed to receptors or FLAG epitope as described above.

human ErbB2 [2] = target: T2, human ErbB2 (human, UniProt P04626 23-1255); test: as above
Text: as §1

human EGF receptor [3] = target: T1, human EGF receptor; test: GST pull-down from Sf9 lysates, receptor blot
Experimental: (§2) For pull-down experiments receptors were expressed in Sf9 insect cells, cleared lysates were incubated for 1.5 hours with 3 μg immobilized GST or GST-32, and beads were washed as previously described (Carraway, K. L., III, et al., Nature, 387:512-16 (1997)). MDA-MB-453 cells were treated for 5 minutes without or with 10 nM NRG1β, lysed as previously described (Sweeney, C., et al., J. Biol. Chem., 275:19803-07 (2000)), and cleared lysates were incubated with GST and GST-32 as above. Precipitated proteins were resolved by 8% SDS-PAGE, transferred to nitrocellulose and visualized by blotting with anti-phosphotyrosine (RC20, Transduction Laboratories) or anti-receptor antibodies.
(§3) To confirm the specificity of the interaction we employed a GST fusion of clone 32 in receptor pull-down experiments. A GST fusion of clone 32 was used instead of full-length Nrdp1 because we observed that GST-Nrdp1 is insoluble in bacteria. We have expressed each of the ErbB family members in Sf9 cells (Carraway, K. L., III, et al., Nature, 387:512-16 (1997)), incubated cleared lysates with immobilized GST or GST-32, and analyzed associated receptors by blotting precipitates with receptor-specific antibodies. We again observed that clone 32 is capable of physically interacting with ErbB3 and ErbB4, but not EGF receptor or ErbB2.

human ErbB2 [4] = target: T2, human ErbB2; test: GST pull-down from Sf9 lysates, receptor blot
Experimental: as §2, §3

B1: Nrdp1 tagged at its amino terminus with FLAG epitope (baculovirus, Sf9 insect cells) (other)
chain: DYKDDDDKMGYDVTRFQGDVDEDLICPICSGVLEEPVQAPHCEHAFCNACITQWFSQQQTCPVDRSVVTVAHLRPVPRIMRNMLSKLQIACDNAVFGCSAVVRLDNLMSHLSDCEHNPKRPVTCEQGCGLEMPKDELPNHNCIKHLRSVVQQQQTRIAELEKTSAEHKHQLAEQKRDIQLLKAYMRAIRSVNPNLQNLEETIEYNEILEWVNSLQPARVTRWGGMISTPDAVLQAVIKRSLVESGCPASIVNELIENAHERSWPQGLATLETRQMNRRYYENYVAKRIPGKQAVVVMACENQHMGDDMVQEPGLVMIFAHGVEEI
notes: Construct used for the Sf9 co-immunoprecipitations; also called FLAG-Nrdp1; neuregulin receptor degradation protein-1
- binding result (human EGF receptor [1]): no binding
- binding result (human ErbB2 [2]): no binding

B2: GST fusion protein of clone 32 encompassing Nrdp1 residues I135 to I317 (other)
chain: IKHLRSVVQQQQTRIAELEKTSAEHKHQLAEQKRDIQLLKAYMRAIRSVNPNLQNLEETIEYNEILEWVNSLQPARVTRWGGMISTPDAVLQAVIKRSLVESGCPASIVNELIENAHERSWPQGLATLETRQMNRRYYENYVAKRIPGKQAVVVMACENQHMGDDMVQEPGLVMIFAHGVEEI
notes: Expressed in bacteria and immobilized on beads (3 ug) for the pull-downs; also called GST-32; GST fusion of clone 32; not shown: glutathione S-transferase encoded by the pGEX vector
- binding result (human EGF receptor [3]): no binding (tested: 3 ug immobilized GST-32)
- binding result (human ErbB2 [4]): no binding (tested: 3 ug immobilized GST-32)
